# Measured values reported in the DeepSol protein solubility set.
# Test: soluble on expression in E. coli; label from the status in PepcDB or PDB records
row,Sequence,soluble on expression in E. coli
1,MILKKDDRMYTKKPTIPENVIERAYKGKCTKEDALLLLEGNPFELFELANDLRAIAAGDTVSYVVNRNIYITNKCVGNCGFCAYRTEKGYILSIEEILKKAGDARKAGAVEVCVQGGYTPEADMEFYLEVIESLKAEYPDLCLHALSPMEVNYAAETSGMSVEEALRRLKKSGLDSLTGTSAEILSDRVRKIICPSKISTQQWIDTVTAAHKAGISTNATIMYGHVETLKERLDHVFTIREIQKETGGFTELIPMSFLPYNNPVGEKMLASGKFSSTGLEDLQLIAISRVILHTYVKNIQATWVKLGKKLAQVALQCGANDLGGTLMEDQISTASGGSHGEYVSPAEFEWMIKGAGRVPVQR,not soluble
2,ENAIIGVNDHTLVTESDGRRWVTREPAIVYFHKKYWFNIIAMIRDNGTSYYCNMASPYYLDEEALKYIDYDLDVKIFTDGEKRLLDVEEYERHKRKMNYS,not soluble
3,MRSPYLIGVFLAAGKSRRMGQNKLALPLKGENIGSLSLKTALSSRLDHVLVVERTEHASLEWIGAPYHAPPFQKRWSLHVCQDAEKGQGHSVSSGVRKAESMGADGIVILLADQPQLSVDHLNALVALAPESFAVSSFLGAFTPPIYFSSTCFPYVKGLKGDEGARRLLKSGQLGAGAVLEAKDSGELDDIDTPRGILEHHHHHH,not soluble
4,MEYFNVGKIVNTQGLQGEMRVLSVSDFAEERFKKGSQLALFDDKDRFVQEVTIVSHRKQKHFDIIKFKDMYHINAIEKYKGYTLKVSKDNQGDLQEGEFYYHQIIGMAVYEKDVLIGHVKEILQPGANDVWIVKRQGKRDLLLPYIPPVVLNVDVPNKRVDVELMEGLDDEDLEHHHHHH,soluble
5,MFEKVKVSTCFHVTLLKDYIVFYVSNNLNFASRWPRRRRGQRLLPTALRAMMLNPTEALLAEVSKARTSGARITVEEFIPIYKKVEAACGRSTTLKEFQTLLSHFDREGNGQIMLMELKSMLQNGGEKMTNQEARALKPATGLDTIYRNLNFNHKFTLDHSAIGFLRTNQFFDVQMIPVSRFFTVQDPSNALLSYTQKGIDFFEKLGQFSKEKAAIEEEYSTKLRSLAKKYAKKSEEDDEILKSVSYTSSFNSFLQQLDQIATRHQTSAEHIRGGVVSYVASKTCQMRSSRKNAINDLKTINDKLEDQINEMCKSGKCYLKSFKDAENSYQKFYKADKNLEISRLELEKARALANARNEACELAKQDYSALVRKTNAEQKRYHVELLPVIFARLKAVDKECIADMRQVLQKIVSFDDSLADSTEECRKIMQREVGKIDAEGDAQLVLKSVEATIEQPAPFEIEDLGDPKNCDSRTNDSADGSGGKLLKSSPSKNRIIRNFLGILKEKEADEKPEASNNDQLMYTDKSKPAHVRLSCLRSKIRDMEKQLEQAIQGREGITRLQQAYYTNPQHGNPSACTEPLISYAKKIEKLKMDIHNLKEFYAMLEMSVEEGQERSFGGRDTPDTTRSMSGSSTNQSSSKTIEDVLSGEAGNSSSADDSSKNILRQLFTTPKRLISSPKTSKSSTPTPLRRRAEISSPKILRSSFSGAIRKSLSTPDSVKVETAVTVTALFEFAKSSAETMSIEQGEILLVLEHDHGDGWTRTKKKHNEESGFVPTSYLQFPQ,not soluble
6,MTVPLTTRDRIALIPIAEIHILNPRTRNKKIHHELIENIKTVGLKRPITVSRRVSTQGSFNYDLVCGQGRLEAFLALEATEIPAFVIDSAEEDCLVMSLVENVARRQHRPIDLMNEVGRLKGRGKTDAEIATIIGSTSSWVNMIVNLIERGEEKLLSAVETGLIPLSMATDIARSSESDIQDLLTDAYERGIRGKKITKLRHLLELRAKKDKLVRGNPLGVSQNKKKRLTPTDLRHLFEREAERQRLMVKKAAFTHDRVVFSIQAIKELLAVSDFEKLLSTEHLDSMPKLIQARLSNRGGL,not soluble
7,MSLEKNKEYIFDIISQGYEGEGIAKIDNKYPIFIEGALKGEKVKVRIVKVNKNFAYGKLMEVLEASEERVNPPCAIYKRCGGCKLQHASYKAQLDFKWDRVKDCVSKIGKLDPSIVKYPLGMEEPWRYRNKVQLPIGLINGEVKIGFFAPRSHDIIDMESCLIQDEIGDKVVKLTREWIEKFNIRPYNVDGEYDEKGIVRHIMIRRGFTTNEVMVVLVTNGEKLPHKEEFVDLMVKNIPGIKSVIQNINSKKTNVILGLESKTLWGEDTISDYIGDFRFNISPLSFFQVNPTQTEVLYGKALEYANLTGNEEVFDAYCGTGTITLFLSQKAKKVYGVEIIPQAIDNAWINAKENKVENVEFFVGESEVVIPDLINKGVKADVVVVDPPRKGCDKKLLDAITNINAKKIVYVSCDPSTLGRDLAILEENGYKTLEVQPVDMFPNTSHVENVAKLIKKEGHHHHHH,soluble
8,MSVPDKFFGRYQLDKSENFDEFLSSKGVNWFVRQMIKLAGLTKIISQNQEAGKYNMENLTSKKNTNYQAWELGKKFEAPGLDGNQHEITFDFKDEILSEHHIRLNEPETSAETYFYTIDDQNQLVMRMENNGIVCRRWFKRVEQK,not soluble
9,MIQTKDIIELTDTYGANNYHPLPIVISKAEGVWVEDPEGNRYMDLLSAYSAVNQGHRHPKIINALIDQANRVTLTSRAFHSDQLGPWYEKVAKLTNKEMVLPMNTGAEAVETAIKTARRWAYDVKKVEANRAEIIVCEDNFHGRTMGAVSMSSNEEYKRGFGPMLPGIIVIPYGDLEALKAAITPNTAAFILEPIQGEAGINIPPAGFLKEALEVCKKENVLFVADEIQTGLGRTGKVFACDWDNVTPDMYILGKALGGGVFPISCAAANRDILGVFEPGSHGSTFGGNPLACAVSIAALEVLEEEKLTERSLQLGEKLVGQLKEIDNPMITEVRGKGLFIGIELNEPARPYCEQLKAAGLLCKETHENVIRIAPPLVISEEDLEWAFQKIKAVLS,not soluble
10,MTVWSKLLSALRGGANEVGEAIVDSQALRILDQEIRDADVELRKSREALASIMARHRLAQERVEKGAAQVAEYEQYAIKALEAGNEELAREVAEKIATLENQLEGERAQVAEFAASVAQLRKSVSQAEGNIRQLKQQVDTVKATESVQKAQMAVAQRYGNSKSKLQTAVDSLERIKQRQAERAATMDAAAELASAAAPDDALDAKLRAAGIKASGNSVDGVLARLKEKGKAAAALEHHHHHH,not soluble
11,MRGSAFNGKWETESQEGYEPFCKLIGIPDDVIAKGRDFKLVTEIVQNGDDFTWTQYYPNNHVVTNKFIVGKESDMETVGGKKFKGIVSMEGGKLTISFPKYQQTTEISGGKLVETSTASGAQGTAVLVRTSKKVLVPR,soluble
12,MVGPLKIGRHEVKYPLIQGGMGVRISGGRLAGHVAKCGGVGLVAAAGISLSGLFTGANYLQSNPEAMRKELRKAYAIAPDGVIGVNIMVALTDYEELVRASIDGGAKVIVCGAGLPLTLPELTAHAPEVALVPIVSSVRAAQLIAKKWEKGFGRLPDAVVVEDPDTAGGHLGEKLENIGAGTYDQYGTIRAIKAYFLEEYGVSVPVVAAGGIWDRDDVLHAFEQGADAVQMASRFVPTVECDADDAYKQAYLECRREDIGLIMSPAGLPGRAILRNQDQIVLHDQLKGVACGNGCLKKCSYKETGERFCIVNALDRAQRGDVETGLVFCGTNAWKADRITTVQEIFDELFAVGEESEKAA,not soluble
13,MGIRPSADEQDQCFMTRITIVTDAWHPQVNGVVRSIENTNTELARLGVDVRMVTPQSFYSIPCPTYPEIRLSVAGYRRVAVEIEKSQPSFVHIATEGPLGFMARRWCVKNHMRFSTSYHTRFPEYVAARFPVPESWLYAFVRWFHNGGNTCMVATPSLETELEARGVRNLKRWSRGIDAELFHPRTKTKLPFDLPRPIFMTVGRVAVEKNLPEFLDLDLPGSKIVIGDGPARYELQEKYPDVLFTGIKTGEELADAYAQADVFVFPSKTDTFGNTILEALASGVPVAAFPVTGPIDILGGNPAAGALDNNLRDACLAALHCSPQAALALSKSYSWEKASRQFLDNVIHAAGKSLPLLSRSRLAAAALEHHHHHH,not soluble
14,MGSDKIHHHHHHMTTESIAVLVIDDDPAILQNIVCYLEDSDFICFGAADGAAGIETFERERPDAVIVDLNMPGMNGRDVIARINAQSPTTPVIVVSGTGVIDEAVESMRVGAWDFLSKPVRRMEELENAVRAGLRRARTMRESNEYKETLERMVKRRTRELQLANDRTEAILLATVQSLSTVINLKDAYTGTHQQRVALIAPAIAEELGMEQRAVEAVRLAALLHDVGKMGLPSEFLTKPSRLDANEMQFIRQHPQLGYDILKDIPFELPIPEMVLQHHERLDGSGYPRGLAGDDILPEARILAVADTVEAICSHRPWRPAHPFSHALHELTAGKNTLYCPDAVNSCIDLITRGDPRLTTFTATIKGLPS,not soluble
15,MSLDGPVVFICGKCKLPVGDSLSWDGSEDEQNQIRLKRVTDNVYVGKENRMYEVGKRSLCLIVDLLCQGCHSVLGMVYASTPKNMDHKRFTFCLNVADIDSYVLGSASQSLAAGGAGEQPVTLEYRSQVEEQLSQMKMLVMSMALKLEEIEIGRREGYEREGHHHHHH,not soluble
16,MSSEFISKVDKEARRKAANILRDKFLNLVEQLKKGEPLVMEIPMRTLSNAIYDEKRKLLLLGEKKLRRNFLDLNEAKRFMQTVLMASIIYDALVSDEYPTIRDLYYRGKHSLLLKSIEGNKIVSEENTWDEQKESDSVIVDIEVFTSLLREEMLILSKEKGKVVGNLRIRSGNDVIDLSKTGHGAYAIEPTPDLIDFIDVDAEFVLVVEKDAVFQQLHRAGFWKQYKSILITSAGQPDRATRRFVRRLNEELKLPVYILTDADPYGWYIFSVFRIGSISLSYESERLATPDAKFLGVSMGDIFGNSRKKPYLSEAERKNYIIKAKDADIKRAEEIKNYEWFKTKAWQEEINTFLQRKAKLEIEAMASKGLKFLAFQYIPEKITNKDYIA,soluble
17,MASKLLQLKSKACEASKFVSKHGTTYYKQLLDKNKMYIQEPATIEKCNELSKQLLYTRLASIPGRSESFWKEVNHVKGLWKNRADLKVEDAGIAALFGLECFAWYCAGEIVGRGFTFTGYYP,not soluble
18,MERGVDNWKVDCKCGTKDDDGERMLACDGCGVWHHTRCIGINNADALPSKFLCFRCIEL,soluble
19,MRIAIEKIIGLLKNQSSKESNVKIHRLAYITNSKFDGNNYIDRWCKIRNSHIGEYSYIGFGSDFNNVEVGRYCSISSDVKIGLGKHPTHFFSSSPIFYSNNNPFNIKQKFIDFNDQPSRTTIKNDVWIGANVIIMDGLTINTGAVIAAGSVVTKNVGAYEVVGGVPAKVIKKRFDNKTIEKLLESKWWEKTPDKLKGFSVEYLNKKDT,not soluble
20,MSSYDVVIIGGGPAGLFAAYELAGLAKDNVSNYKILLVDKGARASKRTCPLLSPKEKCTFCDPCHIMYGFGGAGTFSSGIINLRPDIGGELHEITRSWDKAQELINYVDDIFVKFGAPKDRVFEPNMEKVREIQRRAAKVGAEFVPIRQRHMGTDKTPLIIENIVNYVEKRGIKIGELTEVIDIEKKGNKFFLKTSRGEIESRIVLVAPGRAGAKWFYEQSKKLGVDTIPGPLDIGVRVETESFVFDELTEAVWDPKVILYSKRYDDKVRTFCVNPRGYIMKEVYDDGTIGVNGETYVDKKSNNTNFAFLTTIKLSDPLEDTIEYGKSIARLMTRLGGGKPILQRLIDFQKGRRSTWERINRSTVKPTLRDVTPGDISMGLPYRVVDNLIDGLERLDSIAPGIFSSNTLLYAPEIKYYSVRAVVDNNMETVVDNLFAAGDGTGLSRGINVAAATGILAARGIAIKLGLDLEHHHHHH,not soluble
21,MRREKTMDTLIRSIMIKSKRKMDAKVAQFGLTTQQARVLGFLNDNAANEIIQKDLQRIFQTRGASITSLIQGLEKKQLISRKPSLRDGREKVVTLTKEGKDIVDEFNASFPREDDKAKKILSADEYKTFIELLSKIDDQTDLEHHHHHH,soluble
